{"source": "patent US20220348658A1", "about": "“ANTI-T CELL ANTIGEN-BINDING MOLECULE TO BE USED IN COMBINATION WITH CYTOKINE INHIBITOR” (Chugai Seiyaku Kabushiki Kaisha, priority 2019, published 2022)", "molecules": {"B1": {"name": "GC33/2C11: ERY974 surrogate antibody; GPC3-side chains SEQ ID NO: 443/444, CD3-side chains SEQ ID NO: 445/446 (protein)", "chain 1": "QVQLVQSGAEVKKPGASVKVSCKASGYTFTDYEMHWIRQPPGQGLEWIGAIDPKTGDTAYSQKFKGRVTLTADKSTSTAYMELSSLTSEDTAVYYCTRFYSYTYWGQGTLVTVSSAKTTPPSVYPLAPGSAAQTNSMVTLGCLVKGYFPEPVTVTWNSGSLSSGVHTFPAVLQSDLYTLSSSVTVPSSTWPSETVTCNVAHPASSTKVDKKIVPRDCGCKPCICTVKEVSKVFIFPPKPKDVLTITLTPKVTCVVVDISKDDPEVQFSWFVDDVEVHTAQTQPREEQFNSTFRSVSELPIMHQDWLNGKEFKCRVNSAAFPAPIEKTISKTKGRPKAPQVYTIPPPKEQMAKDKVSLTCMITDFFPEDITVEWQWNGQPAENYKNTQPIMDTDGSYFVYSELNVQKSNWEAGNTFTCSVLHEGLHNHHTEKSLSHSPGK", "chain 2": "DIVMTQSPLSLPVTPGEPASISCRSSQSLVHSNRNTYLHWYQQKPGQAPRLLIYKVSNRFSGVPDRFSGSGSGTDFTLKISRVEAEDVGVYYCSQNTHVPPTFGQGTKLEIKRADAAPTVSIFPPSSEQLTSGGASVVCFLNNFYPKDINVKWKIDGSERQNGVLNSWTDQDSKDSTYSMSSTLTLTKDEYERHNSYTCEATHKTSTSPIVKSFNRNEC", "chain 3": "EVQLVESGGGLVQPGKSLKLSCEASGFTFSGYGMHWVRQAPGRGLESVAYITSSSINIKYADAVKGRFTVSRDNAKNLLFLQMNILKSEDTAMYYCARFDWDKNYWGQGTMVTVSSAKTTPPSVYPLAPGSAAQTNSMVTLGCLVKGYFPEPVTVTWNSGSLSSGVHTFPAVLQSDLYTLSSSVTVPSSTWPSETVTCNVAHPASSTKVDKKIVPRDCGCKPCICTVKEVSKVFIFPPKPKDVLTITLTPKVTCVVVDISKDDPEVQFSWFVDDVEVHTAQTQPREEQFNSTFRSVSELPIMHQDWLNGKEFKCRVNSAAFPAPIEKTISKTKGRPKAPQVYTIPPPKEQMAKDKVSLTCMITDFFPEDITVEWQWNGQPAENYKNTQPIMRTDGSYFVYSKLNVQKSNWEAGNTFTCSVLHEGLHNHHTEKSLSHSPGK", "chain 4": "DIQMTQSPSSLPASLGDRVTINCQASQDISNYLNWYQQKPGKAPKLLIYYTNKLADGVPSRFSGSGSGRDSSFTISSLESEDIGSYYCQQYYNYPWTFGPGTKLEIKRADAAPTVSIFPPSSEQLTSGGASVVCFLNNFYPKDINVKWKIDGSERQNGVLNSWTDQDSKDSTYSMSSTLTLTKDEYERHNSYTCEATHKTSTSPIVKSFNRNEC", "modifications": "H0000-mF18mN4; GL4-mk1; 2C11VH-mF18mP4; 2C11VL-mk1"}}, "key": {"[1]": {"tested_on": "Hepa1-6/hGPC3 cancer cells", "experiment": "Syngeneic mouse model: pre-administration of MR-16-1 and drug efficacy of GC33/2C11", "type": "in vivo, C57BL/6 mice", "protocol": "In a test using a syngeneic mouse model, a study for evaluating the effect of pre-administration of an anti-mouse IL6 receptor antibody, MR-16-1 (see Okazaki M, et al., Characterization of anti-mouse interleukin-6 receptor antibody, Immunol Lett. 2002 Dec. 3; 84(3):231-40; and Saito T, et al., Preparation of soluble murine IL-6 receptor and anti-murine IL-6 receptor antibodies, J. Immunol., 47 (1991), pp. 168-173), on the drug efficacy of ERY974 surrogate antibodies was carried out as follows. Hepa1-6/hGPC3 cancer cells, which are mouse cancer cell line Hepa1-6 made to highly express human GPC3, were transplanted subcutaneously in C57BL/6 mice. The day of transplantation was set to day 0. On day 18, grouping was performed according to tumor size and body weight. MR-16-1 was administered into the tail vein at 30 mg/kg on day 18. On day 19, the day after MR-16-1 administration, GC33/2C11 was administered into the tail vein at 0.2 and 5 mg/kg. MR-16-1 was administered six times in total (on days 18, 21, 25, 28, 32 and day 35). GC33/2C11 was administered once, only on day 19. GC33/2C11 was an antibody comprising the amino acid sequence of SEQ ID NO: 443 as the GPC3-side heavy chain, the amino acid sequence of SEQ ID NO: 444 as the GPC3-side light chain, the amino acid sequence of SEQ ID NO: 445 as the CD3-side heavy chain, and the amino acid sequence of SEQ ID NO: 446 as the CD3-side light chain."}, "[2]": {"tested_on": "Hepa1-6/hGPC3 cancer cells", "experiment": "Syngeneic mouse model: post-administration of MR-16-1 and drug efficacy of GC33/2C11", "type": "in vivo, C57BL/6 mice", "protocol": "In a study using a syngeneic mouse model, a study for evaluating the effect of post-administration of an anti-mouse IL6 receptor antibody, MR-16-1, on the drug efficacy of ERY974 surrogate antibodies was carried out as follows. Hepa1-6/hGPC3 cancer cells, which are mouse cancer cell line Hepa1-6 made to highly express human GPC3, were transplanted subcutaneously in C57BL/6 mice. The day of transplantation was set to day 0. On day 16, grouping was performed according to tumor size and body weight. On day 17, GC33/2C11 was first administered into the tail vein at 0.2 or 5 mg/kg, and two hours later, MR-16-1 was administered into the tail vein at 30 mg/kg. MR-16-1 was administered six times in total (on days 17, 21, 24, 28, 31, and day 35). GC33/2C11 was administered once, only on day 17."}}, "data": [{"molecule": "B1", "values": [{"measurement": "Antitumor activity (%)", "setting": "[1]; Group 2: GC33/2C11 0.2 mg/kg tail vein, day 19, alone", "result": 80, "unit": "%"}, {"measurement": "Antitumor activity (%)", "setting": "[1]; Group 3: GC33/2C11 5 mg/kg tail vein, day 19, alone", "result": 110, "unit": "%"}, {"measurement": "Antitumor activity (%)", "setting": "[1]; Group 5: GC33/2C11 0.2 mg/kg day 19 after pre-administration of MR-16-1 (30 then 15 mg/kg, day 18, 21, 25, 28, 32, 35)", "result": 99, "unit": "%"}, {"measurement": "Antitumor activity (%)", "setting": "[1]; Group 6: 5 mg/kg day 19 after pre-administration of MR-16-1 (30 then 15 mg/kg, day 18, 21, 25, 28, 32, 35)", "result": 107, "unit": "%"}, {"measurement": "Antitumor activity (%)", "setting": "[2]; Group 2: GC33/2C11 0.2 mg/kg tail vein, day 17, alone", "result": 102, "unit": "%"}, {"measurement": "Antitumor activity (%)", "setting": "[2]; Group 3: GC33/2C11 5 mg/kg tail vein, day 17, alone", "result": 109, "unit": "%"}, {"measurement": "Antitumor activity (%)", "setting": "[2]; Group 5: GC33/2C11 0.2 mg/kg day 17, 2 hours before MR-16-1 (30 then 15 mg/kg, day 17, 21, 24, 28, 31, 35)", "result": 103, "unit": "%"}, {"measurement": "Antitumor activity (%)", "setting": "[2]; Group 6: 5 mg/kg day 17, 2 hours before MR-16-1 (30 then 15 mg/kg, day 17, 21, 24, 28, 31, 35)", "result": 109, "unit": "%"}]}]}
